From patent US20220162619

Test system: T1, synthetic model peptide substrate PLVQ conjugated with 7-amino-4-methylcoumarin (AMC)
T1 sequence: PLVQ

Row | Substance | enzymatic (proteolytic) activity: hydrolysis of PLVQ-AMC, fluorescence of free AMC
1 | recombinant truncated triticain-alpha with a C-terminal polyhistidine sequence, expressed in soluble form in E. coli | significantly exceeded the activity of the truncated triticain-alpha preparation 6HIS-Triticain-α-GM, obtained in an insoluble form, as well as that of papain
2 | recombinant truncated triticain-alpha with an N-terminal polyhistidine sequence, expressed in soluble form in E. coli | significantly exceeded the activity of the truncated triticain-alpha preparation 6HIS-Triticain-α-GM, obtained in an insoluble form, as well as that of papain
